For this assay, the target named is HRgpA-6H (Porphyromonas gingivalis) (UniProt P28784). The assay can be described thus: ELISA, coated HRgpA-6H. (ELISA stands for enzyme-linked immunosorbent assay.)

Where “and” joins values, the source holds several entries; their conditions need not be identical. Equal values may be shown once.

UniProt P28784, sequence (P28784 228-860 limits assumed): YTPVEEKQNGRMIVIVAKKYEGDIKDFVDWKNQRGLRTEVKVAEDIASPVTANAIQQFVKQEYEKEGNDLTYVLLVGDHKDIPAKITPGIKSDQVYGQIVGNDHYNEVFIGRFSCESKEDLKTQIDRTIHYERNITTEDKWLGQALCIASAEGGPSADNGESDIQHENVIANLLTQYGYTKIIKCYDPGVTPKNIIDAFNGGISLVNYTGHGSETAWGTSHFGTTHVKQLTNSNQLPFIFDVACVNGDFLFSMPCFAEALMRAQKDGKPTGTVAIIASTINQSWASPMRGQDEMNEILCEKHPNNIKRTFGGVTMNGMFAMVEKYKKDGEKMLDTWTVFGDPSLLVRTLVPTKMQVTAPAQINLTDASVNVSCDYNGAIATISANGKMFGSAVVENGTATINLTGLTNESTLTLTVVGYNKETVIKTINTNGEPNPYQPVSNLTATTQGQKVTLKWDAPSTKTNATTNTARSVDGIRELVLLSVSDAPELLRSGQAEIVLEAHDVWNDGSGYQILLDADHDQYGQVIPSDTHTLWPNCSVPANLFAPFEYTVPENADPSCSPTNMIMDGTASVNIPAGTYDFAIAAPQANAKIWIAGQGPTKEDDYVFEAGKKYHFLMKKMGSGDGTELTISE

B1: KB001 mouse Fab VL T52L (Fab, V domains shown)
VH: EVQLKQSGPGLVAPSQSLSITCTVSGFSLSIYSVHWVRQPPGKGLEWLGMIWGGGSSDYNSALKSRLSISKDNSKSQVFLKMNSLQTDDTAMYYCARNGNFYAMDYWGQGTSVTVSS
VL: QIVLTQSPAIMSASLGERVTMTCTASSSVSSSFLHWYQQKPGSSPQLWIYSLSNLASGVPARFSGSGSGTSYSLTISSMEAEDAATYYCHQYHHSPYIYTFGGGTKLEIK
With B1, the OD450 nm was 0.769 and the Ratio OD(Variant)/OD(WT) came to 0.977.

B2: KB001 mouse Fab VL T52M (Fab, V domains shown)
VH: EVQLKQSGPGLVAPSQSLSITCTVSGFSLSIYSVHWVRQPPGKGLEWLGMIWGGGSSDYNSALKSRLSISKDNSKSQVFLKMNSLQTDDTAMYYCARNGNFYAMDYWGQGTSVTVSS
VL: QIVLTQSPAIMSASLGERVTMTCTASSSVSSSFLHWYQQKPGSSPQLWIYSMSNLASGVPARFSGSGSGTSYSLTISSMEAEDAATYYCHQYHHSPYIYTFGGGTKLEIK
In the case of B2, the OD450 nm came out at 0.662 and the Ratio OD(Variant)/OD(WT) was 0.841.

B3: KB001 mouse Fab VL S53R (Fab, V domains shown)
VH: EVQLKQSGPGLVAPSQSLSITCTVSGFSLSIYSVHWVRQPPGKGLEWLGMIWGGGSSDYNSALKSRLSISKDNSKSQVFLKMNSLQTDDTAMYYCARNGNFYAMDYWGQGTSVTVSS
VL: QIVLTQSPAIMSASLGERVTMTCTASSSVSSSFLHWYQQKPGSSPQLWIYSTRNLASGVPARFSGSGSGTSYSLTISSMEAEDAATYYCHQYHHSPYIYTFGGGTKLEIK
For B3, the OD450 nm was found to be 0.637 and the Ratio OD(Variant)/OD(WT) was determined as 0.809.

B4: KB001 mouse Fab VL S53Y (Fab, V domains shown)
VH: EVQLKQSGPGLVAPSQSLSITCTVSGFSLSIYSVHWVRQPPGKGLEWLGMIWGGGSSDYNSALKSRLSISKDNSKSQVFLKMNSLQTDDTAMYYCARNGNFYAMDYWGQGTSVTVSS
VL: QIVLTQSPAIMSASLGERVTMTCTASSSVSSSFLHWYQQKPGSSPQLWIYSTYNLASGVPARFSGSGSGTSYSLTISSMEAEDAATYYCHQYHHSPYIYTFGGGTKLEIK
For B4, the OD450 nm was 0.776 and 0.781; the Ratio OD(Variant)/OD(WT) is 0.985 and 0.992.

B5: KB001 mouse Fab VL S53W (Fab, V domains shown)
VH: EVQLKQSGPGLVAPSQSLSITCTVSGFSLSIYSVHWVRQPPGKGLEWLGMIWGGGSSDYNSALKSRLSISKDNSKSQVFLKMNSLQTDDTAMYYCARNGNFYAMDYWGQGTSVTVSS
VL: QIVLTQSPAIMSASLGERVTMTCTASSSVSSSFLHWYQQKPGSSPQLWIYSTWNLASGVPARFSGSGSGTSYSLTISSMEAEDAATYYCHQYHHSPYIYTFGGGTKLEIK
Regarding B5, the OD450 nm came out at 0.727 and the Ratio OD(Variant)/OD(WT) came out at 0.923.

B6: KB001 mouse Fab VL S53E (Fab, V domains shown)
VH: EVQLKQSGPGLVAPSQSLSITCTVSGFSLSIYSVHWVRQPPGKGLEWLGMIWGGGSSDYNSALKSRLSISKDNSKSQVFLKMNSLQTDDTAMYYCARNGNFYAMDYWGQGTSVTVSS
VL: QIVLTQSPAIMSASLGERVTMTCTASSSVSSSFLHWYQQKPGSSPQLWIYSTENLASGVPARFSGSGSGTSYSLTISSMEAEDAATYYCHQYHHSPYIYTFGGGTKLEIK
For the molecule B6, the OD450 nm was 0.766 and the Ratio OD(Variant)/OD(WT) came out at 0.973.

B7: KB001 mouse Fab VL S53C (Fab, V domains shown)
VH: EVQLKQSGPGLVAPSQSLSITCTVSGFSLSIYSVHWVRQPPGKGLEWLGMIWGGGSSDYNSALKSRLSISKDNSKSQVFLKMNSLQTDDTAMYYCARNGNFYAMDYWGQGTSVTVSS
VL: QIVLTQSPAIMSASLGERVTMTCTASSSVSSSFLHWYQQKPGSSPQLWIYSTCNLASGVPARFSGSGSGTSYSLTISSMEAEDAATYYCHQYHHSPYIYTFGGGTKLEIK
For B7, the OD450 nm came out at 0.697 and the Ratio OD(Variant)/OD(WT) came to 0.885.

B8: KB001 mouse Fab VL S53V (Fab, V domains shown)
VH: EVQLKQSGPGLVAPSQSLSITCTVSGFSLSIYSVHWVRQPPGKGLEWLGMIWGGGSSDYNSALKSRLSISKDNSKSQVFLKMNSLQTDDTAMYYCARNGNFYAMDYWGQGTSVTVSS
VL: QIVLTQSPAIMSASLGERVTMTCTASSSVSSSFLHWYQQKPGSSPQLWIYSTVNLASGVPARFSGSGSGTSYSLTISSMEAEDAATYYCHQYHHSPYIYTFGGGTKLEIK
For the molecule B8, the OD450 nm turned out to be 0.702 and the Ratio OD(Variant)/OD(WT) was found to be 0.891.

B9: KB001 mouse Fab VL S53A (Fab, V domains shown)
VH: EVQLKQSGPGLVAPSQSLSITCTVSGFSLSIYSVHWVRQPPGKGLEWLGMIWGGGSSDYNSALKSRLSISKDNSKSQVFLKMNSLQTDDTAMYYCARNGNFYAMDYWGQGTSVTVSS
VL: QIVLTQSPAIMSASLGERVTMTCTASSSVSSSFLHWYQQKPGSSPQLWIYSTANLASGVPARFSGSGSGTSYSLTISSMEAEDAATYYCHQYHHSPYIYTFGGGTKLEIK
On to B9, for which the OD450 nm came to 0.784 and the Ratio OD(Variant)/OD(WT) came to 0.996.

B10: KB001 mouse Fab VL N54I (Fab, V domains shown)
VH: EVQLKQSGPGLVAPSQSLSITCTVSGFSLSIYSVHWVRQPPGKGLEWLGMIWGGGSSDYNSALKSRLSISKDNSKSQVFLKMNSLQTDDTAMYYCARNGNFYAMDYWGQGTSVTVSS
VL: QIVLTQSPAIMSASLGERVTMTCTASSSVSSSFLHWYQQKPGSSPQLWIYSTSILASGVPARFSGSGSGTSYSLTISSMEAEDAATYYCHQYHHSPYIYTFGGGTKLEIK
As for B10, the OD450 nm is 0.755 and 0.772 and 0.754; the Ratio OD(Variant)/OD(WT) was 0.964 and 0.985 and 0.962.

B11: KB001 mouse Fab VL N54W (Fab, V domains shown)
VH: EVQLKQSGPGLVAPSQSLSITCTVSGFSLSIYSVHWVRQPPGKGLEWLGMIWGGGSSDYNSALKSRLSISKDNSKSQVFLKMNSLQTDDTAMYYCARNGNFYAMDYWGQGTSVTVSS
VL: QIVLTQSPAIMSASLGERVTMTCTASSSVSSSFLHWYQQKPGSSPQLWIYSTSWLASGVPARFSGSGSGTSYSLTISSMEAEDAATYYCHQYHHSPYIYTFGGGTKLEIK
For the molecule B11, the OD450 nm amounted to 0.646 and the Ratio OD(Variant)/OD(WT) was determined as 0.825.

B12: KB001 mouse Fab VL S53D (Fab, V domains shown)
VH: EVQLKQSGPGLVAPSQSLSITCTVSGFSLSIYSVHWVRQPPGKGLEWLGMIWGGGSSDYNSALKSRLSISKDNSKSQVFLKMNSLQTDDTAMYYCARNGNFYAMDYWGQGTSVTVSS
VL: QIVLTQSPAIMSASLGERVTMTCTASSSVSSSFLHWYQQKPGSSPQLWIYSTDNLASGVPARFSGSGSGTSYSLTISSMEAEDAATYYCHQYHHSPYIYTFGGGTKLEIK
Take B12: the OD450 nm stood at 0.775 and the Ratio OD(Variant)/OD(WT) was found to be 0.984.

B13: KB001 mouse Fab VL S53L (Fab, V domains shown)
VH: EVQLKQSGPGLVAPSQSLSITCTVSGFSLSIYSVHWVRQPPGKGLEWLGMIWGGGSSDYNSALKSRLSISKDNSKSQVFLKMNSLQTDDTAMYYCARNGNFYAMDYWGQGTSVTVSS
VL: QIVLTQSPAIMSASLGERVTMTCTASSSVSSSFLHWYQQKPGSSPQLWIYSTLNLASGVPARFSGSGSGTSYSLTISSMEAEDAATYYCHQYHHSPYIYTFGGGTKLEIK
As for B13, the OD450 nm was 0.639 and 0.636; the Ratio OD(Variant)/OD(WT) is 0.811 and 0.808.

B14: KB001 mouse Fab VL N54K (Fab, V domains shown)
VH: EVQLKQSGPGLVAPSQSLSITCTVSGFSLSIYSVHWVRQPPGKGLEWLGMIWGGGSSDYNSALKSRLSISKDNSKSQVFLKMNSLQTDDTAMYYCARNGNFYAMDYWGQGTSVTVSS
VL: QIVLTQSPAIMSASLGERVTMTCTASSSVSSSFLHWYQQKPGSSPQLWIYSTSKLASGVPARFSGSGSGTSYSLTISSMEAEDAATYYCHQYHHSPYIYTFGGGTKLEIK
With B14, the OD450 nm turned out to be 0.727 and the Ratio OD(Variant)/OD(WT) came out at 0.928.
